# Data taken from article PMC4677358.
# Legend:
# [1] = target: RuvA (bound to Holliday junction DNA) (E. coli) (UniProt P0A809); experiment: single-molecule fluorescence imaging in zero mode waveguides (counting of Cy5 photobleaching steps); 400 nM RuvA with 40 nM biotinylated Cy3-Holliday junction DNA held by streptavidin in the nanoholes, unbound washed out; 400 nM Cy5-RuvB added; 20 mM HEPES-KOH pH 8.0, 10 mM MgCl2; 25 ± 2 °C; holes with a single DNA; step counts fitted for the 42% labeling ratio; 1 mM ADP
# [2] = target: RuvA (bound to Holliday junction DNA) (E. coli) (UniProt P0A809); experiment: single-molecule fluorescence imaging in zero mode waveguides (counting of Cy5 photobleaching steps); 400 nM RuvA with 40 nM biotinylated Cy3-Holliday junction DNA held by streptavidin in the nanoholes, unbound washed out; 400 nM Cy5-RuvB added; 20 mM HEPES-KOH pH 8.0, 10 mM MgCl2; 25 ± 2 °C; holes with a single DNA; step counts fitted for the 42% labeling ratio; 0.5 mM ADP and 0.5 mM ATPγS
# [3] = target: RuvA (bound to Holliday junction DNA) (E. coli) (UniProt P0A809); experiment: single-molecule fluorescence imaging in zero mode waveguides (counting of Cy5 photobleaching steps); 400 nM RuvA with 40 nM biotinylated Cy3-Holliday junction DNA held by streptavidin in the nanoholes, unbound washed out; 400 nM Cy5-RuvB added; 20 mM HEPES-KOH pH 8.0, 10 mM MgCl2; 25 ± 2 °C; holes with a single DNA; step counts fitted for the 42% labeling ratio; 1 mM ATPγS
# [4] = target: RuvA (bound to Holliday junction DNA) (E. coli) (UniProt P0A809); experiment: single-molecule fluorescence imaging in zero mode waveguides (counting of Cy5 photobleaching steps); 400 nM RuvA with 40 nM biotinylated Cy3-Holliday junction DNA held by streptavidin in the nanoholes, unbound washed out; 400 nM Cy5-RuvB added; 20 mM HEPES-KOH pH 8.0, 10 mM MgCl2; 25 ± 2 °C; holes with a single DNA; step counts fitted for the 42% labeling ratio; no nucleotide
# [5] = target: RuvA (bound to Holliday junction DNA) (E. coli) (UniProt P0A809)
# Sequence of UniProt P0A809 (P0A809 whole entry): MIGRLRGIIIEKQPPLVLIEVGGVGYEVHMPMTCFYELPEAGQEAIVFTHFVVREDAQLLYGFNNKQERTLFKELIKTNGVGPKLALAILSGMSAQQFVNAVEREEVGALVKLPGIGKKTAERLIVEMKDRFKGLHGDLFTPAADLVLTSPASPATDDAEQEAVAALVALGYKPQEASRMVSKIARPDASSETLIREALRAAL
# Sequence of RuvB (P0A812 whole entry): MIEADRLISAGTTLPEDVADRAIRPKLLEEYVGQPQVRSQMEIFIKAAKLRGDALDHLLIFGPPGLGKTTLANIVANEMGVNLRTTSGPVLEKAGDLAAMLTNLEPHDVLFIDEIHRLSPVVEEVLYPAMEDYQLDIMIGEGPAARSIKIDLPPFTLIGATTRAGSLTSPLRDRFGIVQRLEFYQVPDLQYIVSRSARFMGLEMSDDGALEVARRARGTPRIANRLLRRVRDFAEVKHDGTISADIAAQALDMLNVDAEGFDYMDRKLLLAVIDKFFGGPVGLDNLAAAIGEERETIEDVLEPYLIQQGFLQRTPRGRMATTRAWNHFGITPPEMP
substance,measurement,setting,value
Cy5-labeled RuvB-S39C (from UniProt P0A812 1-336) (enzyme),"% of Holliday junction DNA (with RuvA) that interacted with RuvB (fit, monomer model)",[1],90%
same,"% of RuvA-Holliday junction DNA complexes with 0 RuvB dimers bound (fit, dimer model, Cy5 at random)",[1],11%
same,"% of RuvA-Holliday junction DNA complexes with 0 RuvB dimers bound (fit, dimer model, one Cy5 per labelled dimer)",[1],26%
same,"% of RuvA-Holliday junction DNA complexes with 0 RuvBs bound (fit, monomer model)",[1],10%
same,"% of RuvA-Holliday junction DNA complexes with 1 RuvB dimers bound (fit, dimer model, Cy5 at random)",[1],48%
same,"% of RuvA-Holliday junction DNA complexes with 1 RuvB dimers bound (fit, dimer model, one Cy5 per labelled dimer)",[1],35%
same,"% of RuvA-Holliday junction DNA complexes with 1 RuvBs bound (fit, monomer model)",[1],10%
same,"% of RuvA-Holliday junction DNA complexes with 2 RuvB dimers bound (fit, dimer model, Cy5 at random)",[1],41%
same,"% of RuvA-Holliday junction DNA complexes with 2 RuvB dimers bound (fit, dimer model, one Cy5 per labelled dimer)",[1],26%
same,"% of RuvA-Holliday junction DNA complexes with 2 RuvBs bound (fit, monomer model)",[1],21%
same,"% of RuvA-Holliday junction DNA complexes with 3 RuvB dimers bound (fit, dimer model, Cy5 at random)",[1],0%
same,"% of RuvA-Holliday junction DNA complexes with 3 RuvB dimers bound (fit, dimer model, one Cy5 per labelled dimer)",[1],13%
same,"% of RuvA-Holliday junction DNA complexes with 3 RuvBs bound (fit, monomer model)",[1],30%
same,"% of RuvA-Holliday junction DNA complexes with 4 RuvB dimers bound (fit, dimer model, Cy5 at random)",[1],0%
same,"% of RuvA-Holliday junction DNA complexes with 4 RuvB dimers bound (fit, dimer model, one Cy5 per labelled dimer)",[1],0%
same,"% of RuvA-Holliday junction DNA complexes with 4 RuvBs bound (fit, monomer model)",[1],29%
same,"% of RuvA-Holliday junction DNA complexes with 5 RuvB dimers bound (fit, dimer model, Cy5 at random)",[1],0%
same,"% of RuvA-Holliday junction DNA complexes with 5 RuvB dimers bound (fit, dimer model, one Cy5 per labelled dimer)",[1],0%
same,"% of RuvA-Holliday junction DNA complexes with 5 RuvBs bound (fit, monomer model)",[1],0%
same,"% of RuvA-Holliday junction DNA complexes with 6 RuvB dimers bound (fit, dimer model, Cy5 at random)",[1],0%
same,"% of RuvA-Holliday junction DNA complexes with 6 RuvB dimers bound (fit, dimer model, one Cy5 per labelled dimer)",[1],0%
same,"% of RuvA-Holliday junction DNA complexes with 6 RuvBs bound (fit, monomer model)",[1],0%
same,"% of Holliday junction DNA (with RuvA) that interacted with RuvB (fit, dimer model of Table 2)",[2],97%
same,"% of Holliday junction DNA (with RuvA) that interacted with RuvB (fit, monomer model)",[2],98%
same,"% of RuvA-Holliday junction DNA complexes with 0 RuvB dimers bound (fit, dimer model, Cy5 at random)",[2],3%
same,"% of RuvA-Holliday junction DNA complexes with 0 RuvB dimers bound (fit, dimer model, one Cy5 per labelled dimer)",[2],14%
same,"% of RuvA-Holliday junction DNA complexes with 0 RuvBs bound (fit, monomer model)",[2],2%
same,"% of RuvA-Holliday junction DNA complexes with 1 RuvB dimers bound (fit, dimer model, Cy5 at random)",[2],24%
same,"% of RuvA-Holliday junction DNA complexes with 1 RuvB dimers bound (fit, dimer model, one Cy5 per labelled dimer)",[2],29%
same,"% of RuvA-Holliday junction DNA complexes with 1 RuvBs bound (fit, monomer model)",[2],5%
same,"% of RuvA-Holliday junction DNA complexes with 2 RuvB dimers bound (fit, dimer model, Cy5 at random)",[2],70%
same,"% of RuvA-Holliday junction DNA complexes with 2 RuvB dimers bound (fit, dimer model, one Cy5 per labelled dimer)",[2],33%
same,"% of RuvA-Holliday junction DNA complexes with 2 RuvBs bound (fit, monomer model)",[2],8%
same,"% of RuvA-Holliday junction DNA complexes with 3 RuvB dimers bound (fit, dimer model, Cy5 at random)",[2],3%
same,"% of RuvA-Holliday junction DNA complexes with 3 RuvB dimers bound (fit, dimer model, one Cy5 per labelled dimer)",[2],19%
same,"% of RuvA-Holliday junction DNA complexes with 3 RuvBs bound (fit, monomer model)",[2],31%
same,"% of RuvA-Holliday junction DNA complexes with 4 RuvB dimers bound (fit, dimer model, Cy5 at random)",[2],0%
same,"% of RuvA-Holliday junction DNA complexes with 4 RuvB dimers bound (fit, dimer model, one Cy5 per labelled dimer)",[2],4%
same,"% of RuvA-Holliday junction DNA complexes with 4 RuvBs bound (fit, monomer model)",[2],37%
same,"% of RuvA-Holliday junction DNA complexes with 5 RuvB dimers bound (fit, dimer model, Cy5 at random)",[2],0%
same,"% of RuvA-Holliday junction DNA complexes with 5 RuvB dimers bound (fit, dimer model, one Cy5 per labelled dimer)",[2],1%
same,"% of RuvA-Holliday junction DNA complexes with 5 RuvBs bound (fit, monomer model)",[2],14%
same,"% of RuvA-Holliday junction DNA complexes with 6 RuvB dimers bound (fit, dimer model, Cy5 at random)",[2],0%
same,"% of RuvA-Holliday junction DNA complexes with 6 RuvB dimers bound (fit, dimer model, one Cy5 per labelled dimer)",[2],0%
same,"% of RuvA-Holliday junction DNA complexes with 6 RuvBs bound (fit, monomer model)",[2],3%
same,"% of Holliday junction DNA (with RuvA) that interacted with RuvB (fit, monomer model)",[3],92%
same,"% of RuvA-Holliday junction DNA complexes with 0 RuvB dimers bound (fit, dimer model, Cy5 at random)",[3],11%
same,"% of RuvA-Holliday junction DNA complexes with 0 RuvB dimers bound (fit, dimer model, one Cy5 per labelled dimer)",[3],23%
same,"% of RuvA-Holliday junction DNA complexes with 0 RuvBs bound (fit, monomer model)",[3],8%
same,"% of RuvA-Holliday junction DNA complexes with 1 RuvB dimers bound (fit, dimer model, Cy5 at random)",[3],36%
same,"% of RuvA-Holliday junction DNA complexes with 1 RuvB dimers bound (fit, dimer model, one Cy5 per labelled dimer)",[3],32%
same,"% of RuvA-Holliday junction DNA complexes with 1 RuvBs bound (fit, monomer model)",[3],12%
same,"% of RuvA-Holliday junction DNA complexes with 2 RuvB dimers bound (fit, dimer model, Cy5 at random)",[3],53%
same,"% of RuvA-Holliday junction DNA complexes with 2 RuvB dimers bound (fit, dimer model, one Cy5 per labelled dimer)",[3],27%
same,"% of RuvA-Holliday junction DNA complexes with 2 RuvBs bound (fit, monomer model)",[3],18%
same,"% of RuvA-Holliday junction DNA complexes with 3 RuvB dimers bound (fit, dimer model, Cy5 at random)",[3],0%
same,"% of RuvA-Holliday junction DNA complexes with 3 RuvB dimers bound (fit, dimer model, one Cy5 per labelled dimer)",[3],14%
same,"% of RuvA-Holliday junction DNA complexes with 3 RuvBs bound (fit, monomer model)",[3],19%
same,"% of RuvA-Holliday junction DNA complexes with 4 RuvB dimers bound (fit, dimer model, Cy5 at random)",[3],0%
same,"% of RuvA-Holliday junction DNA complexes with 4 RuvB dimers bound (fit, dimer model, one Cy5 per labelled dimer)",[3],4%
same,"% of RuvA-Holliday junction DNA complexes with 4 RuvBs bound (fit, monomer model)",[3],31%
same,"% of RuvA-Holliday junction DNA complexes with 5 RuvB dimers bound (fit, dimer model, Cy5 at random)",[3],0%
same,"% of RuvA-Holliday junction DNA complexes with 5 RuvB dimers bound (fit, dimer model, one Cy5 per labelled dimer)",[3],0%
same,"% of RuvA-Holliday junction DNA complexes with 5 RuvBs bound (fit, monomer model)",[3],12%
same,"% of RuvA-Holliday junction DNA complexes with 6 RuvB dimers bound (fit, dimer model, Cy5 at random)",[3],0%
same,"% of RuvA-Holliday junction DNA complexes with 6 RuvB dimers bound (fit, dimer model, one Cy5 per labelled dimer)",[3],0%
same,"% of RuvA-Holliday junction DNA complexes with 6 RuvBs bound (fit, monomer model)",[3],0%
same,"% of Holliday junction DNA (with RuvA) that interacted with RuvB (fit, monomer model)",[4],77%
same,"% of RuvA-Holliday junction DNA complexes with 0 RuvB dimers bound (fit, dimer model, Cy5 at random)",[4],35%
same,"% of RuvA-Holliday junction DNA complexes with 0 RuvB dimers bound (fit, dimer model, one Cy5 per labelled dimer)",[4],52%
same,"% of RuvA-Holliday junction DNA complexes with 0 RuvBs bound (fit, monomer model)",[4],23%
same,"% of RuvA-Holliday junction DNA complexes with 1 RuvB dimers bound (fit, dimer model, Cy5 at random)",[4],65%
same,"% of RuvA-Holliday junction DNA complexes with 1 RuvB dimers bound (fit, dimer model, one Cy5 per labelled dimer)",[4],38%
same,"% of RuvA-Holliday junction DNA complexes with 1 RuvBs bound (fit, monomer model)",[4],37%
same,"% of RuvA-Holliday junction DNA complexes with 2 RuvB dimers bound (fit, dimer model, Cy5 at random)",[4],0%
same,"% of RuvA-Holliday junction DNA complexes with 2 RuvB dimers bound (fit, dimer model, one Cy5 per labelled dimer)",[4],10%
same,"% of RuvA-Holliday junction DNA complexes with 2 RuvBs bound (fit, monomer model)",[4],40%
same,"% of RuvA-Holliday junction DNA complexes with 3 RuvB dimers bound (fit, dimer model, Cy5 at random)",[4],0%
same,"% of RuvA-Holliday junction DNA complexes with 3 RuvB dimers bound (fit, dimer model, one Cy5 per labelled dimer)",[4],0%
same,"% of RuvA-Holliday junction DNA complexes with 3 RuvBs bound (fit, monomer model)",[4],0%
same,"% of RuvA-Holliday junction DNA complexes with 4 RuvB dimers bound (fit, dimer model, Cy5 at random)",[4],0%
same,"% of RuvA-Holliday junction DNA complexes with 4 RuvB dimers bound (fit, dimer model, one Cy5 per labelled dimer)",[4],0%
same,"% of RuvA-Holliday junction DNA complexes with 4 RuvBs bound (fit, monomer model)",[4],0%
same,"% of RuvA-Holliday junction DNA complexes with 5 RuvB dimers bound (fit, dimer model, Cy5 at random)",[4],0%
same,"% of RuvA-Holliday junction DNA complexes with 5 RuvB dimers bound (fit, dimer model, one Cy5 per labelled dimer)",[4],0%
same,"% of RuvA-Holliday junction DNA complexes with 5 RuvBs bound (fit, monomer model)",[4],0%
same,"% of RuvA-Holliday junction DNA complexes with 6 RuvB dimers bound (fit, dimer model, Cy5 at random)",[4],0%
same,"% of RuvA-Holliday junction DNA complexes with 6 RuvB dimers bound (fit, dimer model, one Cy5 per labelled dimer)",[4],0%
same,"% of RuvA-Holliday junction DNA complexes with 6 RuvBs bound (fit, monomer model)",[4],0%
RuvB (from UniProt P0A812 1-336) (enzyme),ratio of fluorescent spots of Cy3-Holliday junction DNA to nanoholes after addition of 400 nM RuvB with 1 mM ATP and 5 min at 25 °C (about 90% before the addition); loss of spots by branch migration,[5],16%
